Results published in patent US11976099B2, “Compositions and methods for treatment of bone associated diseases” (THE NATIONAL INSTITUTE FOR BIOTECHNOLOGY IN THE NEGEV LTD., priority 2016, dated 2024).

Legend:
c-FMS and αvβ3 integrin = experiment: YSD binding of M-CSFRGD variants to c-FMS and αvβ3 integrin, alone and simultaneously; set-up: species or system human
Procedure: (§1) For expressing the M-CSFM gene and the two M-CSFRGD libraries on the yeast surface, the SDCAA medium was replaced by SGCAA medium (2% galactose, 0.67% yeast nitrogen base, 0.5% bacto casamino acids, 1.47% sodium citrate, 0.429% citric acid monohydrate) and the yeasts were incubated overnight at 30° C. until the culture reached OD600=10.0 (10^8 cells per ml). A number of cells equal to ten times the library size was added to 1 ml of PBS containing 1% bovine serum albumin (PBSA); the suspension was centrifuged, and the supernatant was removed. For binding analysis of M-CSFM and the M-CSFRGD libraries to c-FMS, yeast cells were incubated with mouse anti c-myc antibody, 9E10 (Abcam, Cambridge, MA, USA) in a 1:50 ratio and different concentrations of soluble Fc conjugated human c-FMS (R&D systems, USA) for 1 h at room temperature. […]
To identify the high αvβ3 integrin and c-FMS binders, 25 different clones from sort 4 and 25 different clones from sort 5 were tested for binding to 20 nM of αvβ3 integrin, as described in the flow cytometry sorting section. […] To determine the binding specificity to other RGD binding integrins, namely α4β7, […], α5β1 and αvβ5 (BioLegend, USA), the three chosen M-CSFRGD variants (4.22, 4.24 and 5.6) were analyzed for binding to 250 nM of each integrin. […]

mature osteoclasts = experiment: Actin ring formation in mature osteoclasts; assay type: cell-based, mouse; settings: inhibitors 5 μM added to mature osteoclasts for 24 h; F-actin staining
Procedure: FIG. 23 are example pictures showing Actin ring formation in mature osteoclasts incubated with M-CSFRGD variants. Murine BMMs were allowed to differentiate into osteoclasts in the presence of M-CSF and RANKL for 72 h. Then, the cells were incubated for additional 24 h without (positive control) or with inhibitors (5 μM) followed by fixation and staining for F-actin and nuclei. Cells were able to form a solid actin ring (white arrowheads), scattered actin ring (white arrows) or amorphous actin distribution (barbed arrowheads). Pictures are representatives of 35 images acquired from five different wells per sample.
For a mature osteoclast to resorb bone properly, it must form unique structure termed “sealing zone”; this structure consists of an actin ring made from a dense actin mesh connected by adhesion complexes called podosomes. The formation of the actin ring involves several stages: at the beginning, podosomes are formed throughout the cell in a scattered manner, then groups of podosomes form small actin structures named belts and upon osteoclast maturation, the belts are moving to the cell periphery, cluster, and form the actin ring. Podosomes contain high levels of αvβ3 integrin which is essential for the formation of a proper actin ring with condensed podosome network. […]

c-kit receptor = c-kit receptor (Homo sapiens, UniProt P10721); experiment: YSD binding specificity test against c-kit receptor; settings: even at high concentrations of 200 nM; data not shown
Procedure: Next, a binding specificity of the M-CSFM to c-FMS was evaluated. For this purpose, the ability of M-CSFM to bind a c-kit receptor, which is a c-FMS structural homolog, was utilized.

αvβ3 integrin = molecular target: T1, αvβ3 integrin (Homo sapiens, UniProt P05106+P06756, DEL719-788); experiment: YSD binding of M-CSFM to αvβ3 integrin; settings: even at high concentrations of 200 nM
T1 construct: purchased R&D Systems
Procedure: as §1, with “temperature. After an additional washing step, cells were labeled with secondary PE anti mouse (Sigma-Aldrich, St. Louis, MO, USA) and goat anti human Fc FITC antibodies (Sigma-Aldrich) for 30 min at 4° C. in the dark. For binding analysis of M-CSFRGD libraries to integrin, the experiment was performed with integrin binding buffer (IBB; 20 mM Tris, pH7.5, 2 mM CaCl2, 100 mM NaCl, 1 mM MgCl2, and 1 mM MnCl2)+1% BSA. The yeast cells were incubated with chicken anti c-myc and different concentrations of soluble human αvβ3 integrin (R&D Systems, Minneapolis, MN, USA) for 1 h.” for “temperature.”

T1 sequence (P06756 31-992 limits assumed, stated change not applied): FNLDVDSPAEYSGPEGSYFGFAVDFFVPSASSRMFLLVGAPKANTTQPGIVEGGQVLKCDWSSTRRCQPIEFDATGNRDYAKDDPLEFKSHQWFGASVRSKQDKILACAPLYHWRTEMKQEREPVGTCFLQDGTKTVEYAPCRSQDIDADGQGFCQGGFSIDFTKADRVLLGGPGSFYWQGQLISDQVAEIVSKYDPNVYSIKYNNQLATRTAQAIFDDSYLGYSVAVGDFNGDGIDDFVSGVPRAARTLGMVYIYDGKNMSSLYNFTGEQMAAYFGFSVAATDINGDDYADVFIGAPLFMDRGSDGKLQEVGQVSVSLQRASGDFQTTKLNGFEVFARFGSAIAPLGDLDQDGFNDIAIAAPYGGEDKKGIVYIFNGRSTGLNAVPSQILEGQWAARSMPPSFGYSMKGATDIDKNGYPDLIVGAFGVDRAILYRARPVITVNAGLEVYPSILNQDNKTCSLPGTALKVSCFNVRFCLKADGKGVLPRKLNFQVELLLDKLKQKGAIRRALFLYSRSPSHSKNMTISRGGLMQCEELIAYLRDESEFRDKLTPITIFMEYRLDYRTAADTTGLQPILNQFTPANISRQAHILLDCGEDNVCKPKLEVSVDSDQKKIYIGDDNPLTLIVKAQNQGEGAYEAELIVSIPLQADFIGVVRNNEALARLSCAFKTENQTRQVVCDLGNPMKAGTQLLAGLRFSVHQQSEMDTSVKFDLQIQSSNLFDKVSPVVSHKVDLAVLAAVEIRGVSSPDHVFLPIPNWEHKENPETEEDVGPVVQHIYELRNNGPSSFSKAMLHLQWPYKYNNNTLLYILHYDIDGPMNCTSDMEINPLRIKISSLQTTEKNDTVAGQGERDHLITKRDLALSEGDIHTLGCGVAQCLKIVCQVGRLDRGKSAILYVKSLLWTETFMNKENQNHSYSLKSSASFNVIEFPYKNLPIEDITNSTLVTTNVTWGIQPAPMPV
T1 sequence (P05106 27-718 limits assumed, stated change not applied): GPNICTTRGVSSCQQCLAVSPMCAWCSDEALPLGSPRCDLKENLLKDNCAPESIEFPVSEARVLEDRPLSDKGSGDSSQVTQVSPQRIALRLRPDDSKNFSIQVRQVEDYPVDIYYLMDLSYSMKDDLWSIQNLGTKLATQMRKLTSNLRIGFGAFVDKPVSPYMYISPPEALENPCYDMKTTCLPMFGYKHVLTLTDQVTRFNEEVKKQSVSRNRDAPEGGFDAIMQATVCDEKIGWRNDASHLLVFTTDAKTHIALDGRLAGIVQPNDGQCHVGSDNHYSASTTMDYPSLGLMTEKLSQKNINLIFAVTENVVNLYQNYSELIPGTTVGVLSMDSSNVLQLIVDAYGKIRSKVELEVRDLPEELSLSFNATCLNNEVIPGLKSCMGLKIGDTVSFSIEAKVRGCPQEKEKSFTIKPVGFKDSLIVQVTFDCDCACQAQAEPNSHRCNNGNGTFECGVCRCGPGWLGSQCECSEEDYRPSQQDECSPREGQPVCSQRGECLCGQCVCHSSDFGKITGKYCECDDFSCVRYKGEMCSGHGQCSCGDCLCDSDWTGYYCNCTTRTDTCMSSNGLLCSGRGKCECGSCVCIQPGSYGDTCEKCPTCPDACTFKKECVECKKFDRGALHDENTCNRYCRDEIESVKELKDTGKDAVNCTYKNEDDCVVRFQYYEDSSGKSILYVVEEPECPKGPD
c-kit receptor, sequence (P10721 26-976): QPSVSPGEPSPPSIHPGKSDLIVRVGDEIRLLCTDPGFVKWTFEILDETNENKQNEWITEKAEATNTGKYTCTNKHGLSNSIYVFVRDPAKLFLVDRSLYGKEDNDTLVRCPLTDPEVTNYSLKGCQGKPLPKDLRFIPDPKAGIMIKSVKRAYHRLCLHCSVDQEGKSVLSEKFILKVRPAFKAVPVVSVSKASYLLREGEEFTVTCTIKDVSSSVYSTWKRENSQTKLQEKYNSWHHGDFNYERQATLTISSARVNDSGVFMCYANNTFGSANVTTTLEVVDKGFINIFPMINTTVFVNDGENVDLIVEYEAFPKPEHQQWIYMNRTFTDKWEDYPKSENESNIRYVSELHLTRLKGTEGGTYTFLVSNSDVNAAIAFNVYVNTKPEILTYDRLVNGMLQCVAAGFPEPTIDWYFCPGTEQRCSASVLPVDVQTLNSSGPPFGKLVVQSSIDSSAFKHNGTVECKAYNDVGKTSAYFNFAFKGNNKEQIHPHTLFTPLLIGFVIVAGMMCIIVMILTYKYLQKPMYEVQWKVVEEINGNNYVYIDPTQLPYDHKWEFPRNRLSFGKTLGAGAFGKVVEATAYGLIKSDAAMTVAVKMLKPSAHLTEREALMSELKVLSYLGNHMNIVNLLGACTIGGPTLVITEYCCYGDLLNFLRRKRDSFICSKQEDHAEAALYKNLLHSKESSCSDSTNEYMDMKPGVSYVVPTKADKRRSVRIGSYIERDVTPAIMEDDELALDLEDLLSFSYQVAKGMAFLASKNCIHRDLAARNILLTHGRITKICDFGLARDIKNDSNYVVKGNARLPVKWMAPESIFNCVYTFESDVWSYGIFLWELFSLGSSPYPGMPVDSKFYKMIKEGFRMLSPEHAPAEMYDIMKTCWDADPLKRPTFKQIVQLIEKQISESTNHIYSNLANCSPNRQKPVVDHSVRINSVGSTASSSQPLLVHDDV

Row | binding to c-kit receptor (c-kit receptor) | binding to αvβ3 integrin (αvβ3 integrin) | Molecule | relative affinity for c-FMS and αvβ3 integrin (c-FMS and αvβ3 integrin) | simultaneous binding of c-FMS and αvβ3 integrin (c-FMS and αvβ3 integrin; data not shown) | actin ring formation (mature osteoclasts)
1 |  |  | 5.6: bispecific M-CSFRGD variant from sort five; M-CSFM loop replaced by XXXRGDXXX motif; binds c-FMS and αvβ3 integrin (protein, left off: small tags and cut ends) EEVSEYCSHMIGSGHLQSLQRLIDTYPRGDMCSITFEFVDQEQLKDPVCYLKKAFLLVQDIMEDTMRFRDNTPNAIAIVQLQELSLRLKSCFTKDYEEHDKACVRTFYETPLQLLEKVKNVFNETKNLLDKDWNIFSKNCNNSFAECSSQGHERQSEGS | higher affinity for c-FMS than for αvβ3 integrin | could simultaneously bind c-FMS and αvβ3 integrin | showed the same phenotype as cRGD and M-CSFαvβ3
2 | did not bind | did not bind | M-CSFM: 158 amino acid M-CSF with cysteine at position 31 replaced by serine (SEQ ID NO: 2) (protein) EEVSEYCSHMIGSGHLQSLQRLIDSQMETSSQITFEFVDQEQLKDPVCYLKKAFLLVQDIMEDTMRFRDNTPNAIAIVQLQELSLRLKSCFTKDYEEHDKACVRTFYETPLQLLEKVKNVFNETKNLLDKDWNIFSKNCNNSFAECSSQGHERQSEGS |  |  | 
